Test results from patent US20260217833A1 (APTEVO RESEARCH AND DEVELOPMENT, published 2026).
Positions count from the first letter of the chain named. Like-named read-outs stand apart in the source and are kept apart here. One block for each binder: values may come before it.

How the values were obtained:
human CD40 full-length [1] = molecular target: T1, human CD40 full-length (human, UniProt P25942 21-277); assay: flow cytometry, CHOK1SV/human CD40 cells
T1 construct: Also used for CD40 of Daudi cells, of CD40-expressing HEK293 cells and of the BPS CD40/NFkB HEK293 reporter cells where the row says so; also called CD4001012; CHOK1SV/CD40

human CD40 ECD- HAC tag = molecular target: T2, human CD40 ECD- HAC tag (human); assay: SPR, binder captured on anti-human IgG, monomeric CD40 ECD injected, 1:1 fit
T2 construct: also called CD4001006; recombinant monomeric human CD40 ectodomain (ECD)

human CD40 full-length [2] = molecular target: T1, human CD40 full-length; assay: flow cytometry, CHOK1SV/human CD40 cells; remark: listed apart in the source
Target sequence in this assay (P25942 21-277): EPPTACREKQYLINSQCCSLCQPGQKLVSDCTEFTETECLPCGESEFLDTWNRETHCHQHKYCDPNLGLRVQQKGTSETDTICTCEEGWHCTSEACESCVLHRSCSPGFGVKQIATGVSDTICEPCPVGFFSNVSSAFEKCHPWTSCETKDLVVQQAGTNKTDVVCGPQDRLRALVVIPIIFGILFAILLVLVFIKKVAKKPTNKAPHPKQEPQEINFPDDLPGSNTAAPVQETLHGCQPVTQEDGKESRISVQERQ

human CD40 full-length [3] = molecular target: T1, human CD40 full-length; assay: flow cytometry, CHOK1SV/human CD40 cells; remark: listed apart in the source
Cynomolgus CHOK1SV/CD40 = molecular target: T3, Cynomolgus CHOK1SV/CD40; assay: flow cytometry, CHOK1SV/cynomolgus CD40 cells
T3 construct: also called Cyno CD40 full-length; CD4001013
T3 receptor chain: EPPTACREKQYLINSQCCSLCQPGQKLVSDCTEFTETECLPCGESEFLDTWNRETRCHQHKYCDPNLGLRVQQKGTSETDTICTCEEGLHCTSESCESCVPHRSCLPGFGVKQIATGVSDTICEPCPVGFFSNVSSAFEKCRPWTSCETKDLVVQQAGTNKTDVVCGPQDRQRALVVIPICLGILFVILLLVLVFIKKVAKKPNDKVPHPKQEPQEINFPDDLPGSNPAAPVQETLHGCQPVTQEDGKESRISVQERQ

Human PD-L1 full-length = molecular target: T4, Human PD-L1 full-length (human, UniProt Q9NZQ7 19-290); assay: flow cytometry, CHOK1SV/human PD-L1 cells
T4 construct: also called PDL01021; CHOK1SV/huPDL1

human CD40 full-length [4] = molecular target: T1, human CD40 full-length; assay: flow cytometry, CHOK1SV/human CD40 cells; remark: listed apart in the source

T4 sequence (Q9NZQ7 19-290): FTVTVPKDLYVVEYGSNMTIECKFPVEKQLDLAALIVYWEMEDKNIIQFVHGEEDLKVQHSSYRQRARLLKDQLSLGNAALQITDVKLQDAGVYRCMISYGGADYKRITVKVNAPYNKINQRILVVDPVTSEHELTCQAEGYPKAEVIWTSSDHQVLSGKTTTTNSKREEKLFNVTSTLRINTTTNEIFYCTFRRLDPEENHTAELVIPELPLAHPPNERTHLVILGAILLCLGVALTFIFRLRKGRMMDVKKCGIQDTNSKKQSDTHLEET

B1: CD401136 (Fc fusion)
scFv: DIVMTQSPDSLALSLGERATMNCKSSQSLLFSVNQKNYLAWYQQKPGQPPKLLIYWASTRESGVPDRFSGSGSGTDFTLTISSLQAEDVAVYYCQHYYSYPWTFGQGTKLEIKGGGGSGGGGSGGGGSGGGGSQVQLVQSGAEVKKPGASVKVSCKASGYTFSTSWMEWVRQAPGQGLEWMGEILPGSGSTNYAQKFQGRVTMTRDTSTSTVYMELSSLRSEDTAVYYCARGDDGSYVRWYFDVWGQGTTVTVSS
notes: humanized 1D5 variant; also called CD4001136; not shown: human Fc (scFv-hFc format, scFv at the N-terminus) and its junction
binding result (human CD40 full-length [1]): binds

B2: CD4001100 (Fc fusion)
chain: DVQMTQSPILLSASVGDRVTITCRSSQSLVHYNGYTYVHWYQQRTNGSPRLLIYKVSNRFSGVPDRFSGSGSGTDFTLTISSLQPEDIADYFCQQTTHVPLTFGAGTKVEIKGGGGSGGGGSGGGGSGGGGSEVQLVESGGGLEQPGGSLRLSCAASGFTFSSYAMSWVRQAPGKGLEWVASISSAGTYIYYADSVKGRFTISRDNSKNTLYLQMNSLRAEDTAVYYCARHGNGYDPLWYFDVWGQGTTVTVSS
notes: As m65; not shown: wildtype IgG1 Fc region
Kd (human CD40 ECD- HAC tag): 21 nM | koff (human CD40 ECD- HAC tag): 0.006 s⁻¹ | kon (human CD40 ECD- HAC tag): 290000 M⁻¹ s⁻¹ | binding result (human CD40 full-length [2]): binds

B3: CD4001132 (Fc fusion)
chain: DVQMTQSPILLSASVGDRVTITCRSSQSLVHYNGYTYVHWYQQKPGKAPKLLIYKVSNLFSGVPSRFSGSGSGTDFTLTISSLQPEDIADYFCQQTTHVPLTFGAGTKVEIKGGGGSGGGGSGGGGSGGGGSEVQLVESGGGLVQPGGSLRLSCAASGFTFSSYAMSWVRQAPGKGLEWVSAISSAGTYIYYADSVKGRFTISRDNSKNTLYLQMNSLRAEDTAVYYCARHGNGYDPLWYFDVWGQGTTVTVSS
notes: as for B2
kon (human CD40 ECD- HAC tag): 240000 M⁻¹ s⁻¹ | EC50 (read off the curve) (human CD40 full-length [1]): ~5 nM

B4: CD4001133 (Fc fusion)
VH: EVQLVESGGGLVQPGGSLRLSCAASGFTFSSYAMSWVRQAPGKGLEWVSAISSAGTYIYYADSVKGRFTISRDNSKNTLYLQMNSLRAEDTAVYYCARHGNGYDPLWYFDVWGQGTTVTVSS
VL: DIQMTQSPSSLSASVGDRVTITCRASQSLVHYNGYTYLNWYQQKPGKAPKLLIYKVSNRFSGVPDRFSGSGSGTDFTLTISSLQPEDFATYYCQQTTHVPLTFGQGTKVEIK
notes: Tested as scFv on the N-terminus of a wildtype IgG1 Fc region; also called Humanized 5B9
Kd (human CD40 ECD- HAC tag): 85 nM | koff (human CD40 ECD- HAC tag): 0.019 s⁻¹ | kon (human CD40 ECD- HAC tag): 230000 M⁻¹ s⁻¹ | EC50 (read off the curve) (human CD40 full-length [1]): ~7 nM

B5: CD401134 (Fc fusion)
scFv: B1 scFv with Q136K, M167I, V170I, M181I, V201A, M203F, R205A, V212A
notes: humanized 1D5 variant; also called CD4001134; not shown: human Fc (scFv-hFc format, scFv at the N-terminus) and its junction
binding result (human CD40 full-length [1]): binds

B6: CD401135 (Fc fusion)
scFv: B1 scFv with M167I, M181I, V201A, M203F, R205A, V212A
notes: humanized 1D5 variant; also called CD4001135; not shown: human Fc (scFv-hFc format, scFv at the N-terminus) and its junction
binding result (human CD40 full-length [1]): binds

B7: CD401137 (Fc fusion)
scFv: QIVMTQSPGTLSLSPGERATMTCKSSQSLLFSVNQKNYLAWYQQKPGQAPRLLIYWASTRESGVPDRFSGSGSGTDFTLTISRLEPEDAATYYCQHYYSYPWTFGAGTKLEIKGGGGSGGGGSGGGGSGGGGSQVQLVQSGAEVKKPGASVKVSCKASGYTFSTSWMEWVRQAPGQGLEWMGEILPGSGSTNYAQKFQGRVTMTRDTSTSTVYMELSSLRSEDTAVYYCARGDDGSYVRWYFDVWGQGTTVTVSS
notes: humanized 1D5 variant; also called CD4001137; not shown: human Fc (scFv-hFc format, scFv at the N-terminus) and its junction
binding result (human CD40 full-length [1]): binds

B8: PC401132 (bispecific antibody)
scFv-Fc-scFv chain: DIQMTQSPSSLSASVGDRVTITCRASQDINKFLSWYQQKPGKAPKLLIHYTSSLQSGVPSRFSGSGSGTDFTLTISSLQPEDFATYYCLQYDNLYTFGQGTKLEIKGGGGSGGGGSGGGGSGGGGSEVQLVESGGGLVQPGGSLRLSCAASGFTFSDYGMAWVRQAPGKGLEWVSFITSLAYIIYYADSVKGRFTISRDNAKNSLYLQMNSLRAEDTAVYYCARNYGSSPYYFDYWGQGTLVTVSSEPKSSDKTHTCPPCPAPPAAAPSVFLFPPKPKDTLMISRTPEVTCVVVDVSHEDPEVKFNWYVDGVEVHNAKTKPREEQYNSTYRVVSVLTVLHQDWLNGKEYKCAVSNKALPAPIEKTISKAKGQPREPQVYTLPPSRDELTKNQVSLTCLVKGFYPSDIAVEWESNGQPENNYKTTPPVLDSDGSFFLYSKLTVDKSRWQQGNVFSCSVMHEALHNHYTQKSLSLSPGGGGSPSDIQMTQSPSSVSASVGDRVTITCRASQSLLFSVNQKNYLAWYQQKPGKAPKLLIYWASSLQSGVPSRFSGSGSGTDFTLTISSLQPEDFATYYCQHYYSYPWTFGQGTKVEIKGGGGSGGGGSGGGGSGGGGSQVQLVQSGAEVKKPGSSVKVSCKASGYTFSTSWIEWIRQAPGQGLEWMGSINPGSGSTNYAQKFQGRVTITADTSTSTAYMELSSLRSEDTAVYYCARGDDGSYVRWYFDHWGQGTLVTVSS
notes: also called H-Leu52Asn
binding result (human CD40 full-length [3]): binds | binding result (Cynomolgus CHOK1SV/CD40): binds

Next, values leading:

binding result (human CD40 full-length [3]): binds | binding result (Cynomolgus CHOK1SV/CD40): binds
B9: PC401133 (bispecific antibody)
scFv-Fc-scFv chain: B8 scFv-Fc-scFv chain with N667Q
notes: also called H-Leu52Gln

binding result (Human PD-L1 full-length): binds | binding result (human CD40 full-length [4]): binds
B10: CD4001048 (bispecific antibody)
scFv-Fc-scFv chain: DVVMTQTPLSLPVSLGDQASISCRSSQSLVHYNGYTYLHWYLQKPGQSPKLLIYKVSNRFSGVPDRFSGSGSGTDFTLKISRVEAEDLGVYFCSQTTHVPLTFGAGTKLELRGGGGSGGGGSGGGGSGGGGSEVMLVESGGGLVKPGGSLKLSCAASGFTFSSYAMSWVRQTPERRLEWVASISSAGTYIYYPDSVKGRFTISRDNAKNILYLQMNSLRSEDTAMYYCARHGNGYDPLWYFDVWGAGTTVTVSSEPKSSDKTHTCPPCPAPPAAAPSVFLFPPKPKDTLMISRTPEVTCVVVDVSHEDPEVKFNWYVDGVEVHNAKTKPREEQYNSTYRVVSVLTVLHQDWLNGKEYKCAVSNKALPAPIEKTISKAKGQPREPQVYTLPPSRDELTKNQVSLTCLVKGFYPSDIAVEWESNGQPENNYKTTPPVLDSDGSFFLYSKLTVDKSRWQQGNVFSCSVMHEALHNHYTQKSLSLSPGGGGSPSEVQLVESGGGLVKPGGSLRLSCAASGFTFSDYGMAWVRQAPGKGLEWVAFITSLAYIIYYADSVKGRFTISRDNAKNSLYLQMNSLRAEDTAVYYCARNYGSSPYYFDYWGQGTLVTVSSGGGGSGGGGSGGGGSGGGGSDIQMTQSPSSLSASVGDRVTITCRASQDINKFLSWYQQKPGKAPKLLIHYTSSLQPGVPSRFSGSGSGTDFTLTISSLQPEDFATYYCLQYDNLYTFGQGTKLEIK
notes: also called CD40_5B9 x hFc x PDL_5F9

binding result (Human PD-L1 full-length): binds | binding result (human CD40 full-length [4]): binds
B11: CD4001065 (PDL_5F9 x hFc x CD40_5B9) (bispecific antibody)
chain: EVQLVESGGGLVKPGGSLRLSCAASGFTFSDYGMAWVRQAPGKGLEWVAFITSLAYIIYYADSVKGRFTISRDNAKNSLYLQMNSLRAEDTAVYYCARNYGSSPYYFDYWGQGTLVTVSSGGGGSGGGGSGGGGSGGGGSDIQMTQSPSSLSASVGDRVTITCRASQDINKFLSWYQQKPGKAPKLLIHYTSSLQPGVPSRFSGSGSGTDFTLTISSLQPEDFATYYCLQYDNLYTFGQGTKLEIKEPKSSDKTHTCPPCPAPPAAAPSVFLFPPKPKDTLMISRTPEVTCVVVDVSHEDPEVKFNWYVDGVEVHNAKTKPREEQYNSTYRVVSVLTVLHQDWLNGKEYKCAVSNKALPAPIEKTISKAKGQPREPQVYTLPPSRDELTKNQVSLTCLVKGFYPSDIAVEWESNGQPENNYKTTPPVLDSDGSFFLYSKLTVDKSRWQQGNVFSCSVMHEALHNHYTQKSLSLSPGGGGSPSDVVMTQTPLSLPVSLGDQASISCRSSQSLVHYNGYTYLHWYLQKPGQSPKLLIYKVSNRFSGVPDRFSGSGSGTDFTLKISRVEAEDLGVYFCSQTTHVPLTFGAGTKLELRGGGGSGGGGSGGGGSGGGGSEVMLVESGGGLVKPGGSLKLSCAASGFTFSSYAMSWVRQTPERRLEWVASISSAGTYIYYPDSVKGRFTISRDNAKNILYLQMNSLRSEDTAMYYCARHGNGYDPLWYFDVWGAGTTVTVSS
notes: ADAPTIR format, anti-PD-L1 scFv on N-terminus, anti-CD40 scFv on C-terminus; also called CD4001065 (5B9)

binding result (Human PD-L1 full-length): binds | EC50 (read off the curve) (human CD40 full-length [4]): ~5 nM
B12: CD4001068 (bispecific antibody)
PDL_5F9 x Fc-Knob: EVQLVESGGGLVKPGGSLRLSCAASGFTFSDYGMAWVRQAPGKGLEWVAFITSLAYIIYYADSVKGRFTISRDNAKNSLYLQMNSLRAEDTAVYYCARNYGSSPYYFDYWGQGTLVTVSSGGGGSGGGGSGGGGSGGGGSDIQMTQSPSSLSASVGDRVTITCRASQDINKFLSWYQQKPGKAPKLLIHYTSSLQPGVPSRFSGSGSGTDFTLTISSLQPEDFATYYCLQYDNLYTFGQGTKLEIKEPKSSDKTHTCPPCPAPPAAAPSVFLFPPKPKDTLMISRTPEVTCVVVDVSHEDPEVKFNWYVDGVEVHNAKTKPREEQYNSTYRVVSVLTVLHQDWLNGKEYKCAVSNKALPAPIEKTISKAKGQPREPQVYTLPPSRDELTKNQVSLWCLVKGFYPSDIAVEWESNGQPENNYKTTPPVLDSDGSFFLYSKLTVDKSRWQQGNVFSCSVMHEALHNHYTQKSLSLSPG
CD40_5B9 x Fc-Hole: DVVMTQTPLSLPVSLGDQASISCRSSQSLVHYNGYTYLHWYLQKPGQSPKLLIYKVSNRFSGVPDRFSGSGSGTDFTLKISRVEAEDLGVYFCSQTTHVPLTFGAGTKLELRGGGGSGGGGSGGGGSGGGGSEVMLVESGGGLVKPGGSLKLSCAASGFTFSSYAMSWVRQTPERRLEWVASISSAGTYIYYPDSVKGRFTISRDNAKNILYLQMNSLRSEDTAMYYCARHGNGYDPLWYFDVWGAGTTVTVSSEPKSSDKTHTCPPCPAPPAAAPSVFLFPPKPKDTLMISRTPEVTCVVVDVSHEDPEVKFNWYVDGVEVHNAKTKPREEQYNSTYRVVSVLTVLHQDWLNGKEYKCAVSNKALPAPIEKTISKAKGQPREPQVYTLPPSRDELTKNQVSLSCAVKGFYPSDIAVEWESNGQPENNYKTTPPVLDSDGSFFLVSKLTVDKSRWQQGNVFSCSVMHEALHNRFTQKSLSLSPG
